# Experimental data reported in patent publication US10456446B2, “Use of human small leucine zipper protein in osteogenesis procedure” (Korea University Research and Business Foundation, priority 2013, dated 2019).
# T1: PPARγ2 (Homo sapiens, UniProt P37231)
# T1 construct: expressed in transfected cells; host or cells: 293T
# T1 sequence (P37231 1-505): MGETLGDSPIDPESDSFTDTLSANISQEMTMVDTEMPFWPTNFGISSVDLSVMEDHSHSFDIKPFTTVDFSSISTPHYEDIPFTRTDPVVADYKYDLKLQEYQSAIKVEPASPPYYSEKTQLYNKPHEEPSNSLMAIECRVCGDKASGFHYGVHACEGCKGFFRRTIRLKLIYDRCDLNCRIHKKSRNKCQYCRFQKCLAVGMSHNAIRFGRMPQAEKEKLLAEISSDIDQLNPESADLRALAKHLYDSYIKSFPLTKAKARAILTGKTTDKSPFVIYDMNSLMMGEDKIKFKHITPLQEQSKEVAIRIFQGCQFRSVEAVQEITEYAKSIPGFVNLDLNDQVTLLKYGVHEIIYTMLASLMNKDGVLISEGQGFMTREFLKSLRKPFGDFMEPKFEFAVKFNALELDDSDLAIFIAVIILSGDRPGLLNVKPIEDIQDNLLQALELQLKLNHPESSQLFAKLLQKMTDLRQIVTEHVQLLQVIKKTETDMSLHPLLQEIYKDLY
# B1: N domains of sLZIP: N-terminal deletion mutant of sLZIP (1-228) (protein)
# chain: MELELDAGDQDLLAFLLEESGDLGTAPDEAVRAPLDWALPLSEVPSDWEVDDLLCSLLSPPASLNILSSSNPCLVHHDHTYSLPRETVSMDLESESCRKEGTQMTPQHMEELAEQEIARLVLTDEEKSLLEKEGLILPETLPLTKTEEQILKRVRRKIRNKRSAQESRRKKKVYVGGLESRVLKYTAQNMELQNKVQLLEEQNLSLLDQLRKLQAMVIEISNKTSSSS
# modifications: left off: a dimerising Fc or GST
# B2: sLZIP: human small leucine-zipper protein, isoform of LZIP, 354 amino acids, no transmembrane domain, GenBank FJ263669, SEQ ID NO: 1 (protein, listed as Homo sapiens)
# chain: MELELDAGDQDLLAFLLEESGDLGTAPDEAVRAPLDWALPLSEVPSDWEVDDLLCSLLSPPASLNILSSSNPCLVHHDHTYSLPRETVSMDLESESCRKEGTQMTPQHMEELAEQEIARLVLTDEEKSLLEKEGLILPETLPLTKTEEQILKRVRRKIRNKRSAQESRRKKKVYVGGLESRVLKYTAQNMELQNKVQLLEEQNLSLLDQLRKLQAMVIEISNKTSSSSMYSSDTRGSLPAEHGVLSRQLRALPSEDPYQLELPALQSEVPKDSTHQWLDGSDCVLQAPGNTSCLLHYMPQAPSAEPPLEWPFPDLFSEPLCRGPILPLQANLTRKGGWLPTGSPSVILQDRYSG
# Target: T1, PPARγ2
# Experiment: PPARγ2 transcriptional activity, FABP4-Luc luciferase reporter in transfected 293T cells
# Assay type: cell-based
# Settings: for PPARγ2 transcriptional activity (relative luciferase activity): sLZIP or deletion mutants 0.1 μg, RZD treated
# Description: C3H10T1/2 and 293T cells were plated in a 12-well culture dish at a density of 2×10^5 cells/well and incubated for 24 hours. Then, according to instructions of the manufacturer, the cells were transfected with a 0.2 μg of reporter genes and 0.1 to 0.5 μg of a laboratory plasmid using Lipofectamine 2000 or Genefectine. After 24 hours, the cells were cultured in a serum-free DMEM with or without 10 nM of rosiglitazone. siRNAs were prepared using sLZIP and HDAC target sequences (Table 1). For an RNA interference experiment, according to instructions of the manufacturer, the cells were transfected with scrambled control group RNA and appropriate siRNAs using Lipofectamine 2000. Human MSC and C3H10T/1/2 cells were infected with an adenovirus vector containing cDNA of human sLZIP or an empty vector. The infected medium was exchanged with a fresh medium after two hours.
# Appropriately transfected cells were washed with cold PBS twice, and a reporter lysis buffer (Promega) was used and lysed in a culture dish. Luciferase analysis was performed using a luciferase analysis system (Promega Corporation, Madison, Wis.). A luciferase activity was recorded in Luminometer 20/20^n (Turner BioSystems, Sunnyvale, Calif.) according to instructions of the manufacturer. The luciferase activity was normalized to a β-galactosidase activity. For β-galactosidase analysis, CMV-β-galactosidase was transfected with luciferase reporter genes. All pieces of data were represented as mean±standard deviation of the results from at least three independent experiments.
# In order to examine an effect of sLZIP on the transcriptional activity of PPARγ2, 293T cells were temporarily transfected with PPARγ2 (0.5 μg), β-galactosidase (0.1 μg), FABP4-Luc reporter genes (0.2 μg) and sLZIP at different contents (0.1 to 0.5 μg). After the transfection, the cells were stimulated with or without 10 nM of rosiglitazone (RZD) (FIG. 1A), pioglitazone (PZD) (FIG. 1B), and troglitazone (TZD) (FIG. 1C). A relative luciferase activity was analyzed with or without cell ligand treatment 24 hours after transfection. Also, the 293T cells were transiently transfected with si-sLZIP at different contents (50 and 100 nM), and the cells were treated or not treated with RZD (FIG. 1D). FABP4-Luc stable C3H10T1/2 cells were infected with a sLZIP-expressing adenovirus, and then differentiated into adipocytes for 4 days (FIG. 1E). A luciferase activity was normalized to a β-galactosidase activity and represented as a relative activity (fold change). All experiments were repeated three times, and bars in the graph represent mean±standard deviation. *, P<0.05; **, P<0.01
# For this purpose, 293T cells were transiently transfected with PPARγ2 (0.5 μg), β-galactosidase (0.1 μg), FABP4-Luc reporter genes (0.2 μg) and sLZIP (0.1 μg). After the transfection, the cells were stimulated with or without 10 nM of RZD and 10 nM of TSA (FIG. 4A). A promoter activity was measured according to luciferase analysis. In the 293T cells, FABP4-Luc reporter genes, sLZIP, PPAR, β-galactosidase, and 100 nM of si-RNAs and HDAC1, 2, 3 and 8 for a control group were expressed. After the transfection, the cells were stimulated with or without 10 nM of RZD, and a promoter activity was measured (FIG. 4B). 293T cells were temporarily transfected with FABP4-Luc reporter genes, PPARγ2, β-galactosidase, HDAC3 (0.5 μg) and sLZIP (0.1 μg). After the transfection, the cells were stimulated with or without 10 nM of RZD, and luciferase analysis was performed (FIG. 4C). A luciferase activity was normalized to a β-galactosidase activity and represented as a relative intensity (fold change). All experiments were repeated three times, and bars in the graph represent mean±standard deviation. GFP-sLZIP expression constructs were expressed in C3H10T1/2 cells, rabbit anti-HDAC3 antibodies and Texas Red-labeled anti-rabbit antibodies were used and analysis was performed under a fluorescence microscope. The nucleus was stained with DAPI (FIG. 4D). […]
molecule,measurement,setting,value
B1,PPARγ2 transcriptional activity (relative luciferase activity),,inhibited
B2,sLZIP-mediated PPARγ2 transcriptional activity,"sLZIP 0.1 μg together with HDAC3 0.5 μg, with or without 10 nM RZD",significantly down-regulated
same,transcriptional activity of PPARγ2 (relative luciferase activity),"sLZIP 0.1 μg, cells treated with 10 nM TSA",did not decrease the transcriptional activity of PPARγ2
same,transcriptional activity of PPARγ2 (relative luciferase activity),"sLZIP 0.1 μg, no TSA",inhibits the transcriptional activity of PPARγ2
same,transcriptional activity of PPARγ2 (relative luciferase activity),"sLZIP 0.1 to 0.5 μg, with or without 10 nM RZD, PZD or TZD, 24 hours",inhibits the transcriptional activity of PPARγ2 in a concentration-dependent manner
same,PPARγ2 transcriptional activity (relative luciferase activity),,still inhibited the PPARγ2 transcriptional activity
